2 molecules from patent publication US20080227720A1 (MOREHOUSE SCHOOL OF MEDICINE, published 2008) can be followed below.

The experiment has as its target CXCR4 receptor (human, UniProt P61073 1-352). The experiment is described as follows: cell-based or functional assay.

Chain of CXCR4 receptor (P61073 whole entry): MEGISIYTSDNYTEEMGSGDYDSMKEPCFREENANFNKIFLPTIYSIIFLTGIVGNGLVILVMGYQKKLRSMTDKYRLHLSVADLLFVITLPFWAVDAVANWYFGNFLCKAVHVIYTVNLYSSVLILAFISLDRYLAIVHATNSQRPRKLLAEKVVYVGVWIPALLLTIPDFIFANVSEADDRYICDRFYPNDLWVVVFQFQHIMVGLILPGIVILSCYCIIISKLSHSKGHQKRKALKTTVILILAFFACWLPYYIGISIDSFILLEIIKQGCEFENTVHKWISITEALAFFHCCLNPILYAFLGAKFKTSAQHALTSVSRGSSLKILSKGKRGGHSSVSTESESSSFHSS

In the case of GRAFYTTKY [Gp120 9 mer peptide spanning amino acids 315-324 (GRAFYTTKY)], the “apoptosis relative to the full gp 120 protein at an equivalent molar ratio” value is ~60 % of the apoptosis observed from the full gp 120 protein.
Regarding NAACAWLEAQ [Nef 10 mer peptide spanning the 50-60 motif (NAACAWLEAQ)], the “apoptosis relative to the full Nef protein at an equivalent molar ratio” value is ~100 % of the apoptosis observed for the full Nef protein.
